Drawing on PMC2809015, this text covers Kd for two substances.

Assay [1] concerns the target IscA, FeS cluster assembly scaffold protein (E. coli) (UniProt P0AAC8).
Assay [2] addresses HscB, co-chaperone of HscA (E. coli) (UniProt P0A6L9).
In assay [3] the target is IscU, FeS cluster assembly scaffold protein (E. coli) (UniProt P0ACD4).
The target of assay [4] is IscU (Escherichia coli) (UniProt P0ACD4). In words: surface plasmon resonance. The following applies: cited from earlier work.
Sequence of IscU (Escherichia coli) (P0ACD4 whole entry): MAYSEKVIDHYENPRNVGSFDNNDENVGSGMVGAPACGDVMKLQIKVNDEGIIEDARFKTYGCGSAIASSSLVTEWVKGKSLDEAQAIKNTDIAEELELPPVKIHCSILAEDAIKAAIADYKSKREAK

Sequence of HscB, co-chaperone of HscA (E. coli) (P0A6L9 whole entry): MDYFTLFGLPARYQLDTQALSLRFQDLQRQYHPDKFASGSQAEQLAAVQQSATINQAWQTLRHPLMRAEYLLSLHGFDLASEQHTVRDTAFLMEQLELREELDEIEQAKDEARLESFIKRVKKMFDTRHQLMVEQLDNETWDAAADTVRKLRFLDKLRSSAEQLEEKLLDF
Sequence of Biotin synthase (BioB), cluster state not stated for the experiment (P12996 whole entry): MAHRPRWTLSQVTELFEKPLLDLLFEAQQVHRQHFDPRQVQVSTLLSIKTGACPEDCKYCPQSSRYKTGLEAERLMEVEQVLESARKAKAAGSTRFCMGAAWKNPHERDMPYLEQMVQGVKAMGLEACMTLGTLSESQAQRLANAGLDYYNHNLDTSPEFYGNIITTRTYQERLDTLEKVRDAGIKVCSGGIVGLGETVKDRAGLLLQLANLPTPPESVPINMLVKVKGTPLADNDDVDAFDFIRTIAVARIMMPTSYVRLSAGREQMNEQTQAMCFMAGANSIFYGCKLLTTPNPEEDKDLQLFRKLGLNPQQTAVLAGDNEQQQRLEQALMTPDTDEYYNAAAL
Sequence of IscU, FeS cluster assembly scaffold protein (E. coli) (P0ACD4 whole entry): as the sequence (P0ACD4 whole entry) above
Sequence of IscA, FeS cluster assembly scaffold protein (E. coli) (P0AAC8 whole entry): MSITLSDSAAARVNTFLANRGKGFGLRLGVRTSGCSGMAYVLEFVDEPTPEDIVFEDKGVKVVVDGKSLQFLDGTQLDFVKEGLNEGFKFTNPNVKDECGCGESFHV
Sequence of HscA (P0A6Z1 whole entry): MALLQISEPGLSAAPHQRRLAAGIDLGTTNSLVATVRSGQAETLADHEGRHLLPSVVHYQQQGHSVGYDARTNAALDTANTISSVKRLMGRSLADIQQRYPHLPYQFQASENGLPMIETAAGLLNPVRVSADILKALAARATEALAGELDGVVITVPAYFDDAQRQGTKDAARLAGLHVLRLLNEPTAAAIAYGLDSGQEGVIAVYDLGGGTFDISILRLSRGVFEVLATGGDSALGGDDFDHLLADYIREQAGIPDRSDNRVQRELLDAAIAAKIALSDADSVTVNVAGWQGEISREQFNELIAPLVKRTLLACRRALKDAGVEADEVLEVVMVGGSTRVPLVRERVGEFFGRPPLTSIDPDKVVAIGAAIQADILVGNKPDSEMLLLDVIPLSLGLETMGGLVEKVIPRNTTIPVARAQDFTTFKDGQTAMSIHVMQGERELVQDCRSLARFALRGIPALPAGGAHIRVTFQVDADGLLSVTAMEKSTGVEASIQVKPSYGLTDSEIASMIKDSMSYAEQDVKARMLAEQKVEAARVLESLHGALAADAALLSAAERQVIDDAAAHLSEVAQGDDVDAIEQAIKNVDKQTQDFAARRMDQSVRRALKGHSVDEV

By Kd is commonly meant a measure of binding affinity in units of concentration. As for “Biotin synthase (BioB), cluster state not stated for the experiment (from UniProt P12996 1-346) (enzyme)”, the Kd in assay [1], in assay [2] and in assay [3] was over 10 µM each time.

For the substance HscA (from UniProt P0A6Z1), the Kd in assay [4] is 9.3 µM.
